Source: the supplement of paper PMC9170038

Test system: MS2 coat protein
Experiment: apparent KD of MS2 coat protein; higher = weaker reporter binding
Settings: Eterna round: R107
In short: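 Each design's apparent KD comes from the median of binding-curve fits to its normalised clusters. Those clusters carried RNA switches transcribed on-chip from Illumina sequencing clusters. SNAP-549-labelled MS2 coat protein was titrated onto them in twofold steps (0.7 or 1.5 nM to 3 µM; per step 0.8–1.5 h down to 10–20 min). Conditions were 100 mM Tris-HCl pH 7.5, 80 mM KCl, 4 mM MgCl2, without or with constant ligand.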

[1] = input ligand: theophylline 20 uM
[2] = input ligand: tryptophan 2.4 mM
[3] = input ligand: theophylline 2 mM

Sequence	apparent KD of MS2 coat protein (input ligand: arginine 13.2 mM)	apparent KD of MS2 coat protein [1]	apparent KD of MS2 coat protein [2]	apparent KD of MS2 coat protein (input ligand: none)	apparent KD of MS2 coat protein [3]
AGCCCUGUACUAGAUACCAGCUACAUGAGGAUCACCCAUGUGCGUCAAGACUGACUGUGUAGCCCUUGGCAGCUACUCGCAUGUA [Exclusion - Theophylline B (Freestyle 3)]	13.7 nM	23.1 nM	14.9 nM		
AGCGAUAUGCAUGAUACCAGCUACAUGAGGAUCACCCAUGUACGUCAGUAAUGACUGUGUAGCCCUUGGCAGCAUAGAGCAUGUA [Exclusion - Theophylline B (Freestyle 13)]	21.7 nM	35.4 nM	22.7 nM		
AGCGGAACGGAAGGGUCCCGAAAUUGUGAUACCAGCCUUGAAUCCGGCCCUUGGCAGCACAUGAGGAUCACCCAUGUACUGCGGU [Arimaed]	11.4 nM	20.7 nM	13.1 nM		
AGCUCAGAGAGUGAUACCAGACUACAUGAGGAUCACCCAUGUUACUUUUAAAUAUCAUGAGUCCCUUGGCAGCACAAGAAGAGCA [JR_ExcTheophyB_Sub016]	40.1 nM	117 nM	73.2 nM		
AGCUCGCAUCCUCUAGCGUCAAAGACGCGUCGAGGACCGGUACGGCCGCCACUCGACUUGAGGAUCACCCAAGUCUAAGCGAGCA [TrypAX 11 #SwitchBubble #AlternativeMS2 #MS2Late #CuTurnoff]	54.8 nM	91.1 nM	488 nM	92.6 nM	215 nM
AGGAAAACAUGAGCAAAGCUCAUGUGCGAAGGAGCGGCGGAAACGCCAGGUAGGUCGCGCACAUGAGCAUCAGCCAUGUGUAUCA [Omei Arginine B SS A v4]	39.5 nM	78.8 nM	31.6 nM	42.3 nM	409 nM
AGGACCAGGAACAUGGGUGAACUGGUCCAACGAGGACCGGUACGGCCGCCACUCGAAUAAACAUGAGGAUCACCCAUGUAAUAAU [T''-M-T'-T-MS2]	83.3 nM	296 nM	210 nM	327 nM	442 nM
AGGACGGUCGGAAGGAGCGGUACAUGAGGAUCACCCAUGUACCUCUGGGCAUCCGUAGUGUGCCAGGUAGGUCGCCGAUUGCGGG [Lareerra]	15.7 nM	19.5 nM	11.8 nM	12 nM	16.5 nM
AGUAAUCUAACAGAUACCAGACGGUAUAUAACAUGAGGAUCACCCAUGUCUUGGGUGUACGUCCCUUGGCAGCUGAAAAUGAUAA [JR_SSTheophyB_Sub001]	157 nM	551 nM	756 nM		
AGUACAUGAGGAUCACCCAUGUACCAUGAUACCAGACAUGAAAAUGUCCCUUGGCAGCGUGGGUGAGGCAUCCGAAAGGAUGCCC [#05 SameState-TheophyllineA]	51.1 nM	185 nM	77.7 nM	223 nM	30.5 nM
AGUACUCGAACGGAUACCAGCCGGACAUGAGGAUCACCCAUGUCCUACCUCUGUUCGGUUGGCCCUUGGCAGCCGUUCGUGUACA [Omei Theo B SS A v7]	41.4 nM	580 nM	128 nM		
AGUCGAAACUGAAGGAGCGAGAUGACAACAUUGGGUCUAACAUGAGGAUCACCCAUGUAAUCUCAGGUAGGUCGCAGUAACAAAA [Exclusion Arginine B GF 16]	172 nM	165 nM	93.1 nM	78.7 nM	104 nM
AGUCUGGACUCGGCCGCCACUCGUGAUGCUUUGGCACAUGAGGAUCACCCAUGUGGUCGGCCUUAGAGGACCGGGAGUACCAGCU [Zaraoned]	38.6 nM	65.9 nM			61.3 nM
AGUCUUAAAGGAAGGAGCGCAAUCAUAACAUGAGGAUCACCCAUGUCGAGGUGAGGGUCAUUGCAGGUAGGUCGCCUUACUAAGA [Same State - Arginine B (Freestyle 7)]	128 nM	88.7 nM	78.4 nM	79.6 nM	134 nM
AGUCUUAUAGGAAGGAGCGCAAUCAUAACAUGAGGAUCACCCAUGUCGAGGUGAGGGUCAUUGCAGGUAGGUCGCCUAACUAAGA [Same State - Arginine B (Freestyle 8)]	126 nM	121 nM	96.5 nM	281 nM	344 nM
AGUGCUACGUGUAAUCAAAGAGAACCAGAUACCAGAUUAGCAUACAUCCCUUGGCAGCUGCAUACAUGAGGAUCACCCAUGUCAG [theeternabot_exclusion_MS2_Theo_A_31]	26.5 nM	38.4 nM	31.8 nM		
AGUGUUGUAACUGAUACCAGACCUUUGCUUAUACAUGAGGAUCACCCAUGUAAAAUGGCGGUCCCUUGGCAGCAGAGAAGACGCA [#10 Same State - Theophylline B]	41.5 nM	27 nM	41.9 nM		

Sequence	apparent KD of MS2 coat protein (input ligand: arginine 13.2 mM)	apparent KD of MS2 coat protein [1]	apparent KD of MS2 coat protein [2]	apparent KD of MS2 coat protein (input ligand: none)	apparent KD of MS2 coat protein [3]
AGUUAAAUAUGUUAAUAACUAUUUACUGAAGGAGCGUGUUUUGACACAGGUAGGUCGCAGUGACAUGAGGAUCACCCAUGUCGUA [#08 Same State - Arginine A]	20.3 nM	21.8 nM	19.2 nM	17.4 nM	21.6 nM
AGUUAUUUCCGAAGGAGCGUUAUACAUGAGGAUCACCCAUGUACAUGAGGUUCAACAUGAAAACAGGUAGGUCGCGGAUUUUGUC [Exclusion Arginine B4]	15.6 nM	27.6 nM	14.2 nM	19.2 nM	29 nM
AUAACAUGAGGAUCACCCAUGUAAGCUGAAGGAGCGCUGGAAACAGCAGGUAGGUCGCAGCUACCUACCACCUCAUGAGGUAGGU [(M1)-(M2)-(Arg1)-(Arg2)-(A)'-(M)'-(A)''_Design6]	16.4 nM	24.4 nM	19 nM	18.5 nM	25.9 nM
AUAACAUGAGGAUCACCCAUGUAUUGGUAACGAGGACCGGUACGGCCGCCACUCGAAUUUUGGUGGUAUAAUAUAUAUAUGAUUA [JR_SSTryptoA_Sub016]	17.4 nM	25.4 nM			18.8 nM
AUAAGUACGUCAGAUACCAGACAGCCAGACUUACAUGAGGAUCACCCAUGUGGAUGGACGGUCCCUUGGCAGCUGGCCGCAAAAG [Isedgeor]	172 nM	128 nM	216 nM		
AUAAUGAGUGGUGGAUAGGUGAUCCUCUUACGAGGACCGGUACGGCCGCCACUCGAUAACAUGAGGAUCACCCAUGUAAUAAUAA [|T'-M'-Trp-Ms2|_Design19]	21 nM	22.6 nM			18.9 nM
AUACAUGAGGAUCACCCAUGUAUAGAUGAAGGAGCGACCAGAGGGUCAGGUAGGUCGCAUCACAUGAGGAUCACCCAUGUACUUA [DOUBLE!!! :-D #9]	27.1 nM	43.7 nM	41.5 nM	42.1 nM	42.7 nM
AUACAUGAGGAUCACCCAUGUCACACAGAAGGAGCGGCUGUAGAGCCAGGUAGGUCGCUGUACUGAAAAUACUUCAUACUCAUGU [#30 Exclusion - Arginine A]	21.7 nM	43 nM	26.1 nM	59.6 nM	32.3 nM
AUACAUGAGGAUCACCCAUGUCAUACAGAAGGAGCGUCAUAUUAGACAGGUAGGUCGCUGUAAUUUUUAUUAUUCUUUAUGUAUU [JR_Nu_ExcArginiA_Sub026]	21.9 nM	33.5 nM	26.1 nM	26 nM	26.9 nM
AUACAUGAGGAUCACCCAUGUUAUAGUGAAGGAGCGACAUUUAGGUCAGGUAGGUCGCACUAUUGAAUUAUUAUCCUUAUUUCUU [JR_ExcArginiA_Sub020]	16.1 nM	22 nM	15.7 nM	14 nM	15.5 nM
AUACCUAAUGAGUCGUGUAACUUUUCAGAUACCAGACUUUUCGUUGUCCCUUGGCAGCUGUUUUACAUGAGGAUCACCCAUGUUG [JR_ExcTheophyA_Sub008]	14.9 nM	18.5 nM	14.9 nM		
AUACCUAGUGAGUCGUGUUUCUUUUCAGAUACCAGACUUUUCGUUGUCCCUUGGCAGCUGUUUUACAUGAGGAUCACCCAUGUUG [JR_ExcTheophyA_Sub007]	16.1 nM	18.4 nM	15.2 nM		
AUCAUAAUAGACUCGUUAGAUUAUAUGGAACGAGGACCGGUACGGCCGCCACUCGUGAUGUACAUGAGGAUCACCCAUGUUAGCA [JR_SSTryptoA_Sub002]	13.1 nM	17.4 nM			17.3 nM
AUCAUCAGUUCGGCCGCCACUGUUUGGCACAGUUGUAUCGUACAUGAGGAUCACCCAUGUCACCACAGGACCGGGAACGCCGUCG [theeternabot_exclusion_MS2_Trp_B_1]	16.3 nM	21.6 nM			18.3 nM
AUCCUCAAGAAUGAUACCAGACCAAACAUGAGGAUCACCCAUGUAUCAGGCAAUUGUUACGUCCCUUGGCAGCAUGUAAGCCGAC [Theo B SS t2]	35.5 nM	70.2 nM	39.2 nM		
AUCGCACCUGGUGAUACCAGCGUUUGCUCGUGACAUGAGGAUCACCCAUGUGGCCAGUGAUGCCCUUGGCAGCAUGGUCGGUGCA [Same State - Theophylline B (Freestyle 26)]	61.7 nM	376 nM	296 nM		
AUCGUACCUGAAGAUACCAGCAUGUGAUCAUAACAUGAGGAUCACCCAUGUAAUCAGUGAUGCCCUUGGCAGCUUGAUCGGUACA [Same State - Theophylline B (Freestyle 12)]	39.6 nM	41.3 nM	30.2 nM		
